Values of other authors, collected in PMC9357288.
pKd: −log10 of the molar value.

Target: Hck SH3 (Homo sapiens) (UniProt P08631)
Sequence of UniProt P08631 (P08631 75-141): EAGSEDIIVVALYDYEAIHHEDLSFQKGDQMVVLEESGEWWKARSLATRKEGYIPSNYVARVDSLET

In the case of Nef (from UniProt P04324), the pKd is listed as 6.60.
